Assay results as given in PMC8505397, “Development of peptides targeting receptor binding site of the envelope glycoprotein to contain the West Nile virus infection” (Scientific Reports, 2021).
Where “and” joins values, the source holds several entries; their conditions need not be identical. Identical values can stand only once. Positions of bridges follow the written chain, without caps; N, C: chain ends. No end group written: not given here.

T1: rDIII (West Nile virus, UniProt P06935)
T1 construct: rDIII – recombinant domain III; made in house; host or cells: E. coli M15
T1 sequence (P06935 584-692 limits assumed): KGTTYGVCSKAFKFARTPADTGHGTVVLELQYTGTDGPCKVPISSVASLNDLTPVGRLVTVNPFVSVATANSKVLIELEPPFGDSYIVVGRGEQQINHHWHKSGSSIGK

T2: interaction between rDIII and ~ 15 kDa receptor of hBMECs (West Nile virus, UniProt P06935)
T2 construct: rDIII – recombinant domain III; made in house; host or cells: E. coli M15
T2 sequence (P06935 584-692 limits assumed): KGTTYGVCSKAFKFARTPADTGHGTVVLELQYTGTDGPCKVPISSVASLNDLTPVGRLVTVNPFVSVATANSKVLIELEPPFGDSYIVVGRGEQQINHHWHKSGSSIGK

T3: interaction between rDIII and proteins of hBMECs (West Nile virus, UniProt P06935)
T3 construct: rDIII – recombinant domain III; made in house; host or cells: E. coli M15
T3 sequence (P06935 584-692 limits assumed): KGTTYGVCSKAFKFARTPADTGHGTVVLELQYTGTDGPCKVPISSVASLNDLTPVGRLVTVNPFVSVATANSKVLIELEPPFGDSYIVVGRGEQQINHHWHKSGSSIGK

T4: recombinant domain III (DIII) of the envelope (E) glycoprotein of West Nile virus (West Nile virus)
T4 chain: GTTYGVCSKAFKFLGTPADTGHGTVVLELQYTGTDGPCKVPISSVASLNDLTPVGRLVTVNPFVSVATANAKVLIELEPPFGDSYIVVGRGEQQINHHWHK


Columns and labels:
[1] = biological target: T1, rDIII; assay: ELISA of the binding of 7-mer cyclic and 12-mer linear peptides to rDIII; details: peptides coated through C-terminus in CovaLink NH plates; 1 µg rDIII; HisProbe-HRP; negative control subtracted
Description: The 7-mer cyclic and 12-mer linear peptides were covalently bound in CovaLink NH microwell plates and their binding to rDIII was corroborated by ELISA. Details are presented in Supplementary Method S11.
Confirmation of the binding of 7-mer cyclic and 12-mer linear peptides to rDIII by ELISA. The 7-mer cyclic and 12-mer linear peptides were covalently bound in CovaLink NH microwell plates overnight at 4°C as per the manufacturer´s instructions (Thermo Fischer Scientific).
Unbound peptides were washed with PBS (pH 7.4) and non-specific sites were blocked with 0.5% BSA in PBS for 1 h at room temperature. After blocking, wells were washed 2 times for 2 min with CovaBuffer (2 M NaCl, 40 mM MgSO4.7H2O, 0.05% Tween 20, PBS; pH 7.2). One microgram of rDIII diluted in 0.05% PBST was added in separate wells and incubated for 1 h at room temperature with constant shaking. Wells were washed 3 times for 2 min with CovaBuffer and interaction was detected with HisProbe-HRP conjugate (1:5,000 dilution in 0.1% BSA in PBST; Thermo Fisher Scientific) for 30 min at room temperature with constant shaking. After 6 washings, the chromogenic reaction was developed using a 1-Step Ultra TMB-ELISA substrate (Thermo Fisher Scientific). After 25 min, the reaction was stopped with 2 M H2SO4 and absorbance was measured at 450 nm. For negative controls, either rDIII or peptides were excluded from the protocol. The assay was performed in triplicates. […]

[2] = biological target: T2, interaction between rDIII and ~ 15 kDa receptor of hBMECs; assay: Blocking of interaction between rDIII and proteins of hBMECs by peptides (Western blot); format: binding, West Nile virus / human; details: 2.5 µg (0.19 nM) rDIII pre-incubated with tenfold molar excess (1.9 nM) of peptide
Description: (§1) First, concentration-dependent ELISA and Western blot were performed to get the minimum concentration of rDIII required to show its interaction with hBMECs proteins. Details are presented in Supplementary Method S12 and Supplementary Method S13. Subsequently, the ability of 7-mer and 12-mer peptides to block the interaction between rDIII and proteins of hBMECs was tested. A tenfold molar excess of peptides was incubated with rDIII for 1 h at room temperature. Such pre-incubated rDIII was subsequently used in the assays. Details of both methods are described in Supplementary Method S12 and Supplementary Method S13. […]
Blocking of interaction between rDIII and proteins of hBMECs by peptides (Western blot).
Two hundred micrograms of proteins extracted from hBMECs were separated on 2-well PAGE […]
gel (12% polyacrylamide gel) and transferred on 0.45 μm nitrocellulose membrane (Amersham Protran; GE Healthcare) for 1 h at 30 V. Details of LDS-PAGE are described in Supplementary Methods S7. The membrane was cut horizontally to obtain proteins of molecular weight between ~10 kDa to ~25 kDa. Subsequently, this membrane was sliced vertically to obtain 0.3 cm strips, which were then used in Western blot (Supplementary Fig.
The NC strips with transblotted hBMECs proteins were first incubated with rDIII at various concentrations to find out the minimal concentration of rDIII required to detect the interaction with hBMECs proteins. Non-specific binding sites were blocked with 1% BSA in 0.05% TBST (pH 7.2) for 1 h at room temperature and constant shaking followed by a washing step for 5 min with 0.05% TBST. The NC strips were incubated with rDIII at different concentrations (5 µg, 2.5 µg, 2 µg, 1 µg, 500 ng) diluted in 1 mL of 0.05% TBST for 3 h at room temperature and constant shaking. After 3 washings with 0.05% TBST, strips were incubated with HisProbe-HRP conjugate (1:5,000 dilution in 0.1% BSA in 0.05% TBST; Thermo Fisher Scientific) for 30 min at room temperature. Six washings, each of 5 min were performed before incubating the strips in SuperSignal chemiluminescence substrate (Thermo Fisher Scientific). The signal was captured on the C-DiGit Blot Scanner (Odyssey CLx, LI-COR Biosciences). For negative control, rDIII was excluded from the above-mentioned protocol.
To block the interaction, the NC strips were blocked as described above.
Simultaneously, 2.5 µg (0.19 nM) of rDIII were pre-incubated with 2.75 µg of each peptide (10-fold molar excess; 1.9 nM) in TBS for 1 h at room temperature. Further on, strips were incubated with pre-incubated rDIII for 3 h at room temperature with constant shaking. After 3 washings with 0.05% TBST, strips were incubated with HisProbe-HRP conjugate as described above. […]

[3] = biological target: T3, interaction between rDIII and proteins of hBMECs; assay: Blocking of interaction between rDIII and proteins of hBMECs by peptides (ELISA); format: binding, West Nile virus / human; details: rDIII 0.15 nM pre-incubated with tenfold molar excess (1.5 nM) of peptide; ELISA
Description: as §1
Blocking of interaction between rDIII and proteins of hBMECs by peptides (ELISA). First, different concentrations of rDIII were tested to get the minimum concentration of rDIII required to show the interaction with hBMECs proteins. Protein extract of hBMECs (4 μg/well) diluted in coating buffer (0.5 M Na2CO3, 0.5 M NaHCO3; pH 9.5) was incubated in the microtiter wells for overnight at 4°C. Unbound hBMECs proteins were washed with PBS (pH 7.3) containing 0.05% Tween 20 (0.05% PBST) and non-specific binding sites were blocked with 0.5% BSA in 0.05% PBST. rDIII at different concentrations (5 µg, 2.5 µg, 2 µg, 1 µg, 500 […]
ng, 250 ng, 125 ng, and 62.5 ng) diluted in 0.05% PBST was added into wells and incubated for 3 h at room temperature and constant shaking. Wells were washed 3 times with 0.05% PBST and incubated with HisProbe-HRP conjugate (1:5,000 dilution in 0.1% BSA in 0.05% PBST; Thermo Fisher Scientific) for 30 min at room temperature and constant shaking. […] The reaction was stopped after 25 min with 2 M H2SO4 and the absorbance was measured at 450 nm. […]
After blocking, the wells were washed 3 times with 0.05% PBST, pre-incubated rDIII was added and incubated for 3 h at room temperature with constant shaking. […] The reaction was stopped after 25 min with 2 M H2SO4 and the absorbance was measured at 450 nm. hBMECs proteins incubated with untreated rDIII were used as a positive control. […]

[4] = biological target: T4, recombinant domain III (DIII) of the …; assay: ELISA; blocking ELISA: rDIII (2 µg, printed as 0.15 nM) pre-incubated 1 h at room temperature with a tenfold molar excess (1.5 nM) of peptide, then added to coated hBMEC proteins; negative control (no rDIII) subtracted; details: both partners purified
[5] = biological target: T4, recombinant domain III (DIII) of the …; assay: cell-based or functional assay

Molecule	A450, ELISA of peptide binding to rDIII [1]	inhibition of the interaction between rDIII and ~ 15 kDa hBMECs receptor (Western blot) [2]	inhibition of the interaction between rDIII and hBMECs proteins [3] [%]	A450 of rDIII on proteins of hBMECs after pre-incubation with the peptide [4]	percent inhibition of rDIII binding to proteins of hBMECs [4] [%]	neutralisation of infection of cultured cells by virus like particles (C, M and E proteins, luciferase reporter), EC50; the peptide blocks DIII binding to endothelial cells [5] [nM]
CDPRHSKFC (ACDPRHSKFCGGGS; disulfide 2-10 (inferred)) [CP15]	> 1.5	did not show clear inhibition of the interaction				
CMQTQRAHC (ACMQTQRAHCGGGS; disulfide 2-10 (inferred)) [CP6]	> 1.5	did not show clear inhibition of the interaction				
CTNANHYFC (ACTNANHYFCGGGS; disulfide 2-10 (inferred)) [CP7]	> 1.5		37			
HYSWSWIAYSPG (HYSWSWIAYSPGGGGS; left off: His6, N-terminal, cleaved | 28 aa tag, N-terminal, cleaved) [LP19]	0.082					
SGVYKVAYDWQH (SGVYKVAYDWQHGGGS; left off: His6, N-terminal, cleaved | 28 aa tag, N-terminal, cleaved) [LP3]	2.564 and > 1.5	did not show clear inhibition of the interaction				
ACLAQSHPLCGGGS (disulfide 2-10 (inferred), additional alanine at the N-terminus (ACX7CGGGS); peptide of phage clone CC16; C-terminal linker; also called C16; source: E. coli SHuffle T5, purified; N-terminal tag cleaved with enterokinase and removed on nickel beads; not shown: His6, N-terminal, cleaved; 28 aa tag, N-terminal, cleaved) [7-mer cyclic peptide CP16 (ACX7CGGGS form of CLAQSHPLC)]				0.427	60	14.8
ACIHSSTRACGGGS (disulfide 2-10 (inferred), additional alanine at the N-terminus (ACX7CGGGS); peptide of phage clone CC4; C-terminal linker; source: E. coli SHuffle T5, purified; N-terminal tag cleaved with enterokinase and removed on nickel beads; not shown: His6, N-terminal, cleaved; 28 aa tag, N-terminal, cleaved) [7-mer cyclic peptide CP4 (ACX7CGGGS form of CIHSSTRAC)]				0.346	67	17
SGVYKVAYDWQHGGGS (peptide of phage clone LC3; C-terminal linker; source: E. coli SHuffle T5, purified; N-terminal tag cleaved with enterokinase and removed on nickel beads; not shown: His6, N-terminal, cleaved; 28 aa tag, N-terminal, cleaved) [12-mer linear peptide LP3 (X12GGGS form of SGVYKVAYDWQH)]				0.647	39	
ACMQTQRAHCGGGS (disulfide 2-10 (inferred), additional alanine at the N-terminus (ACX7CGGGS); peptide of phage clone CC6; C-terminal linker; source: E. coli SHuffle T5, purified; N-terminal tag cleaved with enterokinase and removed on nickel beads; not shown: His6, N-terminal, cleaved; 28 aa tag, N-terminal, cleaved) [7-mer cyclic peptide CP6 (ACX7CGGGS form of CMQTQRAHC)]				0.56	47	
ACDPRHSKFCGGGS (disulfide 2-10 (inferred), additional alanine at the N-terminus (ACX7CGGGS); peptide of phage clone CC15; C-terminal linker; source: E. coli SHuffle T5, purified; N-terminal tag cleaved with enterokinase and removed on nickel beads; not shown: His6, N-terminal, cleaved; 28 aa tag, N-terminal, cleaved) [7-mer cyclic peptide CP15 (ACX7CGGGS form of CDPRHSKFC)]				0.423	60	
ACTYENHRTCGGGS (disulfide 2-10 (inferred), additional alanine at the N-terminus (ACX7CGGGS); peptide of phage clone CC12; C-terminal linker; source: E. coli SHuffle T5, purified; N-terminal tag cleaved with enterokinase and removed on nickel beads; not shown: His6, N-terminal, cleaved; 28 aa tag, N-terminal, cleaved) [7-mer cyclic peptide CP12 (ACX7CGGGS form of CTYENHRTC)]				0.418	61	10.4
ACTKTDVHFCGGGS (disulfide 2-10 (inferred), additional alanine at the N-terminus (ACX7CGGGS); peptide of phage clone CC2; C-terminal linker; source: E. coli SHuffle T5, purified; N-terminal tag cleaved with enterokinase and removed on nickel beads; not shown: His6, N-terminal, cleaved; 28 aa tag, N-terminal, cleaved) [7-mer cyclic peptide CP2 (ACX7CGGGS form of CTKTDVHFC)]				0.117	89	2.43
